The values that follow come from paper PMC3090699 (Amino acids, 2010).

The data set concerns the molecule itself. In words: SEC.

B1: methionine adenosyltransferase from Methanococcus jannaschii, wild type (enzyme, UniProt Q58605 1-406, looked up)
chain: MRNIIVKKLDVEPIEERPTEIVERKGLGHPDSICDGIAESVSRALCKMYMEKFGTILHHNTDQVELVGGHAYPKFGGGVMVSPIYILLSGRATMEILDKEKNEVIKLPVGTTAVKAAKEYLKKVLRNVDVDKDVIIDCRIGQGSMDLVDVFERQKNEVPLANDTSFGVGYAPLSTTERLVLETERFLNSDELKNEIPAVGEDIKVMGLREGKKITLTIAMAVVDRYVKNIEEYKEVIEKVRKKVEDLAKKIADGYEVEIHINTADDYERESVYLTVTGTSAEMGDDGSVGRGNRVNGLITPFRPMSMEAASGKNPVNHVGKIYNILANLIANDIAKLEGVKECYVRILSQIGKPINEPKALDIEIITEDSYDIKDIEPKAKEIANKWLDNIMEVQKMIVEGKVTTF
On to B1, for which the “stoichiometry N” value came out at 2.
